T1: recombinant RSV G[161-197] (respiratory syncytial virus (RSV), UniProt P03423 161-197)
T1 chain: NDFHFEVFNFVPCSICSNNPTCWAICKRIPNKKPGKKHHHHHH


Assays:
[1] = target: human chemokine receptor CX3CR1 (human) (UniProt P49238); assay: cell-based or functional assay
[2] = target: T1, recombinant RSV G[161-197]; assay: cell-based or functional assay

Chain of human chemokine receptor CX3CR1 (human) (P49238 whole entry): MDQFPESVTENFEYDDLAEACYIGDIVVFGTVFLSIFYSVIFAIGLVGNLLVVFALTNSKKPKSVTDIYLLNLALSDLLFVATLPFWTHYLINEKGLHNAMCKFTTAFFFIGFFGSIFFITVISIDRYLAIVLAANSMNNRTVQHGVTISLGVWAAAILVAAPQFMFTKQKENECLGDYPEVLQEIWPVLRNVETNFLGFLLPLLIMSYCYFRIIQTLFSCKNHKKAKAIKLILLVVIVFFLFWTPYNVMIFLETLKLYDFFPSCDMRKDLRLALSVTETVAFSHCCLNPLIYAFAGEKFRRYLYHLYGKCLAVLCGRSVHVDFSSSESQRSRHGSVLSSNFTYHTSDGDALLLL

| Molecule | chemotactic index (fold-increase in THP-1 cell migration vs serum-free media) (fold (chemotactic index)) [1] | chemotactic index of 5 nM RSV G[161-197] pre-incubated with 25 nM mAb [2] |
| --- | --- | --- |
| RSV G ectodomain (G[ecto]) (from UniProt P03423 64-298) | 3.9 |  |
| recombinant RSV G[161-197] (from UniProt P03423 161-197) (peptide) | 4.2 |  |
| mAb 3D3 (antibody, V domains shown) VH: EEQLVESGGGLVQPGRSLRLSCVGSGLRFEEHAMHWVRQAPGRGLEWVSGISWNSGSVGYADSVKGRFTTSRDNAKDILFLEMNTLRSEDTALYFCAIMVATTKNDFHYYKDVWGKGTTVTVSS VL: QIVLTQSPATLSLSPGERATLSCKASQSVSNHLAWYQQKPGQAPRLLIYETSNRATGIPPRFSGSGSGTDFTLTISSLEPEDFAVYYCQQRNNWYTFGQGTKLEIK |  | 1.5 fold (chemotactic index) |
| mAb 2D10 (antibody, V domains shown) VH: QVQLVQSGPEVKKPGASVRLSCKASGYVFTNYGVSWVRQAPGQGLEWMGWSSPYNGNTYYAQKLKARVTMTTDTSTNTAYMELRSLRSDDTAVYYCGRDMLGVVQAVAGPFDSWGQGTLVTVSS VL: DTPMTQSPSSVSASVGDRVTISCRASQGISNSLAWYQQKLGKAPQLLIYAASSLQSGVPSRFSGSGSGTDFTLTISSLQPEDFATYYCQQTNTFPFTFGPGTKVEVRR |  | 1 fold (chemotactic index) |

Source: patent US20210268096A1 (TRELLIS BIOSCIENCE, published 2021)
